Measured values reported in US20200000877A1, “TREATMENT OF TUMOURS USING PEPTIDE-PROTEIN CONJUGATES” (priority 2014, published 2020).
Entries after “also recorded” stand apart in the source; their conditions may differ.

How the values were obtained:
RIP1-Tag5 tumours [1] = experiment: Long term treatment and survival studies in RIP1-Tag5 mice; format: in vivo, mouse
Procedure: 22 week-old RIP1-Tag5 mice were treated with bi-weekly i.v. injections of recombinant proteins as described for short term regimens for a total of 8 weeks and survival/tumour burden analysed at the set endpoint of 30 weeks. For adoptive transfer experiments, 2.5×10^6 activated TagTCR8 CD8^+ T cells were injected i.v twice (at week 4 and week 6). In adoptive transfer experiments (without LIGHT-RGR), mice received two adoptive transfers only. Chemotherapy: 22 week-old mice were treated with i.v. injections of 0.2 ng LIGHT-RGR bi-weekly over a period of 8 weeks and were simultaneously provided with […] cyclophosphamide (metronomic low dose) in drinking water throughout the experiment. The long term treatment regimen is shown schematically in FIG. 2. In addition, mice were treated with cyclophosphamide and/or LIGHT-RGR and survival monitored (death as endpoint).
For vaccination, mice were primed with one subcutaneous injection (tail base) of 50 μg recombinant Tag protein mixed with 50 μg Freund's adjuvant (Sigma). […] For combination therapies with checkpoint blockade, RIP1-Tag5 mice were treated with LIGHT-RGR (20 ng, iv, biweekly) in combination with anti-PD1 ([…].) and anti-CTLA4 ([…].) antibodies (BioXCell). In addition, mice were treated with triple combination of LIGHT-RGR/anti-PD1+anti CTL4/anti-Tag vaccine.
(§1) Mice were perfused with 2% neutral-buffered formalin before removal of tumours. Tumours were incubated in 10% (2 h) and 30% sucrose overnight and embedded in OCT compound. For immunohistochemistry the following antibodies were used: anti B220 (BD Pharmingen), anti-CD8 (Ly-2, BD Pharmingen), anti-CD31 (Mec 13.3., BD Pharmingen), anti-ICAM2 (3C4, BD Pharmigen), anti-CD45 (30-F11, BD Pharmingen), anti-CD68 (FA-11, BD Biosciences), anti-calponin (rabbit monoclonal EP798Y, Abcam), anti-caldesmon (rabbit monoclonal E89, Abcam), anti-collagen I or collagen IV (rabbit polyclonal, Abcam), Ki67 (PP67, Abcam), MECA79 (American type tissue culture, ATCC) and αSMA (1A4, Sigma). For secondary detection, AMCA (7-Amino-4-methylcoumarin-3-acetic acid), Cy-3 or FITC-conjugated IgG F(ab′)2 fragments (Jackson Immuno Research) were used. The αSMA staining was amplified using the mouse on mouse (M.O.M.) kit (Vector). For lectin perfusion, mice were i.v. injected with 50 μg of FITC-labelled tomato lectin (Lycopersicon esculentum, Vector). After 10 min of circulation, mice were heart-perfused with 2% neutral-buffered formalin and tumours frozen in OCT. To evaluate vessel leakiness, 1 mg of 70 kDa Texas Red Dextran (Invitrogen) was injected i.v. and allowed to circulate for 10 min. Mice were heart-perfused with PBS followed by 2% neutral buffered formalin and tumours frozen in OCT. Apoptosis was assessed using TUNEL staining (Roche). Images were recorded on a Nikon Ti-E microscope and quantified using NIS software modules (version 3.0).
Cumulative survival time was calculated by the Kaplan-Meier method and analyzed by the log-rank test. Student's t test (2-tailed) was used unless indicated otherwise. A P value of less than 0.05 was considered statistically significant. Error bars indicate SD unless stated otherwise.
To study the complex interrelationship between tumour, tumour vessels and the immune system, the inventors' analyses focused on a transgenic mouse model which develops spontaneous tumours that mimic the clinical scenario with regard to native anatomical location, slow growth kinetics, and multistep tumour progression.

4T1 breast cancer = experiment: Breast tumour model, orthotopic 4T1 in Balb/c mice, tumour histology; format: in vivo, mouse
Procedure: (§2) Murine breast cancer cells (5×10^6, 4T1 from ATCC) were injected orthotopically into the mammary fat pad of Balb/c mice. […] Mice were injected with pimonidazole (hypoxia marker) and FITC-labelled lectin. After 1 h/10 min (pimonidazole/lectin, respectively) circulation, mice were perfused with 2% formalin and tumors dissected and fresh frozen in OCT compound. Tumours were analyzed by histology for vessel frequency (CD31), quality of vessel perfusion (CD31 plus lectin-FITC), caldesmon induction and frequency of intratumoral hypoxia (pimonidazole staining).
as §2, with “caldesmon (contractile pericyte marker)” for “caldesmon”

RIP1-Tag5 tumours [2] = experiment: Short term treatment of tumour-bearing RIP1-Tag5 mice, tumour histology; format: in vivo, mouse; conditions: 2 μg; regimen not stated
[3] = system: tumour resident macrophages; experiment: TGFβ secretion of ex vivo purified tumour resident macrophages (ELISA); format: cell-based, mouse; conditions: macrophages from treated tumours; data not shown
stromal cells = experiment: CCL21 secretion by stromal cells
RIP1-Tag5 tumours [4] = experiment: Short term treatment of tumour-bearing RIP1-Tag5 mice, tumour histology; format: in vivo, mouse
Procedure: Short term treatment: commencing at 26-27 weeks of age mice were treated for 2 weeks with bi-weekly intravenous (i.v.) injections of recombinant proteins in 100 μl volume at 0.2 ng (equivalent to approximately […] body weight for a 30 g mouse) or 20 ng (equivalent to approximately […] body weight for a 30 g mouse) LIGHT or LIGHT-RGR. When indicated this was followed by one adoptive transfer of TagTCR8 (CD8+) T cells. Four days later, mice were sacrificed and tumours were isolated for histology. For adoptive transfer experiments, TagTCR8 lymph node cells were activated in vitro for 3 days, with 10 U of rIL-2/ml and 25 nM Tag peptide […] (SEFLIEKRI). 2.5×10^6 activated CD8^+ T cells were injected i.v once. The short term treatment regimen is shown schematically in FIG. 1
as §1
To study the complex interrelationship between tumour, tumour vessels and the immune system, the inventors' analyses focused on a transgenic mouse model which develops spontaneous tumours that mimic the clinical scenario with regard to native anatomical location, slow growth kinetics, and multistep tumour progression. In RIP1-Tag5 mice, the oncogene SV40 Large T antigen (Tag; RIP, rat insulin gene promoter) is exclusively expressed in β cells of the pancreas leading to stepwise tumour development through well-characterized stages progressing from hyperplastic islets, to the initiation of Tag expression at approximately 10 weeks, the onset of blood vessel formation in angiogenic islets (termed “angiogenic switch”) at approximately 16 weeks and then to highly vascularised solid tumours at approximately 22 weeks, followed by death at approximately 30 weeks.

pericyte cell line = experiment: Calponin/caldesmin expression in pericyte cell line in vitro; format: cell-based; conditions: direct LIGHT induction; data not shown
[5] = 0.2 ng i.v. bi-weekly for 2 weeks
[6] = 20 ng i.v. bi-weekly for 2 weeks

B1: LIGHT-RGR (protein)
chain: MESVVQPSVFVVDGQTDIPFRRLEQNHRRRRCGTVQVSLALVLLLGAGLATQGWFLLRLHQRLGDIVAHLPDGGKGSWEKLIQDQRSHQANPAAHLTGANASLIGIGGPLLWETRLGLAFLRGLTYHDGALVTMEPGYYYVYSKVQLSGVGCPQGLANGLPITHGLYKRTSRYPKELELLVSRRSPCGRANSSRVWWDSSFLGGVVHLEAGEEVVVRVPGNRLVRPRDGTRSYFGAFMVGGGCRGRRSTG
With B1 the “survival of RIP1-Tag5 mice at week 30” value (RIP1-Tag5 tumours [1]; 0.2 ng LIGHT-RGR combined with adoptive T cell transfer) was “approximately 70%”, the “survival over vaccination alone or vaccination with LIGHT” value (RIP1-Tag5 tumours [1]; 0.2 ng in combination with anti-Tag vaccination) was “substantially increased survival” and the “inflammatory response at tumour site / tumour appearance” value (RIP1-Tag5 tumours [1]; 0.2 ng long term in combination with adoptive transfer of anti-Tag lymphocytes) was “substantial inflammatory response at the tumour site and pale”. For the same molecule, the “tumour size / tumour burden” value (RIP1-Tag5 tumours [1]; 0.2 ng plus cyclophosphamide, 8 weeks) was “shift from large tumours to smaller tumours”, the “apoptotic tumour cells (TUNEL), compared to each treatment alone” value (RIP1-Tag5 tumours [1]; 0.2 ng plus low dose metronomic cyclophosphamide in drinking water, 8 weeks) was “significant increase in apoptotic tumour cells” and the “survival compared to controls” value (RIP1-Tag5 tumours [1]; 20 ng LIGHT-RGR with anti-PD-1 (250 μg) and anti-CTLA4 (75 μg) antibodies, week 23 to 45) was “significantly increased survival”. For the same molecule, the “survival at 45 weeks of age” value (RIP1-Tag5 tumours [1]; 20 ng LIGHT-RGR with tumour specific (anti-Tag) vaccine) was 30%, the “RIP1-Tag5 mice alive at 45 weeks” value (RIP1-Tag5 tumours [1]; 20 ng LIGHT-RGR+vaccine+anti-PD-1+anti-CTLA4) was 70% and the “tumour cell apoptosis (TUNEL)” value (RIP1-Tag5 tumours [1]; 20 ng, long term) was “increase in tumour cell apoptosis”. The “tumour cell content (Dapi, H&E)” value (RIP1-Tag5 tumours [1]; 20 ng, long term) was “substantial reduction of tumour cells”, the “tumour necrosis at 30 weeks” value (RIP1-Tag5 tumours [1]; 20 ng, long term) was “highly necrotic” and the “survival compared to either treatment alone” value (RIP1-Tag5 tumours [1]; LIGHT-RGR in combination with cyclophosphamide from week 22) was “significant increased survival”. For the same molecule, the “survival of RIP1-Tag5 mice at week 30” value (RIP1-Tag5 tumours [1]; single treatments, LIGHT-RGR 0.2 ng, treated from week 22) was “approximately 30%”, the “vessel normalization as shown for RIP1-Tag5 mice” value (4T1 breast cancer; 20 ng) was “reproduced all aspects of vessel normalization” and the vessel normalization (4T1 breast cancer; 20 ng i.v. bi-weekly for 2 weeks, 4T1) was “induces vessel normalization”. For the same molecule, the “contractile markers in pericytes (caldesmon)” value (4T1 breast cancer; 20 ng, 4T1) was “induced contractile markers in pericytes”, the “overall vascularity (CD31+ vessels)” value (4T1 breast cancer; 20 ng, 4T1) was “without change in overall vascularity” and the “tumour hypoxia (pimonidazole)” value (4T1 breast cancer; 20 ng, 4T1) was “reduced tumour hypoxia; also recorded: reduces tumor hypoxia”. The vessel calibers (4T1 breast cancer; 20 ng, 4T1) was “reduced vessel calibers”, the “vessel perfusion (FITC-lectin)” value (4T1 breast cancer; 20 ng, 4T1) was “increases vessel perfusion” and the “binding affinity to tumor vessels relative to RIP1-Tag5” value (4T1 breast cancer; breast cancer model) was “lower binding affinity to tumor vessels”. The “dose required to recapitulate the vessel phenotype of RIP1-Tag5 mice treated with 0.2 ng” value (4T1 breast cancer; breast cancer model) was 20 ng, the “effect on vessels in RIP1-Tag5 mice” value (RIP1-Tag5 tumours [2]) was “caused vessel death” and the “TGFβ secretion by tumour macrophages” value [3] was “stimulates macrophages in the tumour environment to secrete TGFβ”. The “CCL21 secretion by stromal cells” value (stromal cells) was “stimulates stromal cells to secrete CCL21”, the “collagen IV alignment / stromal Col IV” value (RIP1-Tag5 tumours [4]; [5]) was “close vessel alignment of collagen IV; also recorded: decreased stromal Col IV” and the “pericyte attachment to vessels (αSMA+ pericytes)” value (RIP1-Tag5 tumours [4]; [5]) was “firm attachment of pericytes to vessels; also recorded: significantly decreased the protrusion of αSMA+ pericytes from the vasculature”. For the same molecule, the “normalization of tumour vessels (histology)” value (RIP1-Tag5 tumours [4]; 0.2 ng i.v. bi-weekly for 2 weeks (four injections), RIP1-Tag5 mice) was “normalized chaotic tumour vessels”, the “total vessel counts / CD31 surface area” value (RIP1-Tag5 tumours [4]; 0.2 ng i.v. bi-weekly for 2 weeks, CD31 vessel marker) was “without affecting total vessel counts; also recorded: total surface area of CD31 remained intact” and the tumour vessel caliber (RIP1-Tag5 tumours [4]; 0.2 ng i.v. bi-weekly for 2 weeks, small <30 μm, larger 150-200 μm) was “shift from large to small caliber tumour vessels; also recorded: significant increase in small vessels”. For the same molecule, the “T cell infiltration, compared to either treatment on their own” value (RIP1-Tag5 tumours [4]; 0.2 ng in combination with adoptive transfer of in vitro activated CD8+ T cells) was “significantly improves T cell infiltration”, the “tumour perfusion (FITC-lectin staining of vessels)” value (RIP1-Tag5 tumours [4]; 0.2 ng, 2 week treatment) was “indicative of adequate perfusion; also recorded: increased tumour perfusion” and the “vessel leakiness (extravasation of 70 kDa dextran)” value (RIP1-Tag5 tumours [4]; 0.2 ng, 2 week treatment) was “less leaky phenotype; also recorded: reduced vascular leakiness”. For the same molecule, the “CD8+ T cell infiltration” value (RIP1-Tag5 tumours [4]; 0.2 ng, short term) was “enhance CD8+ T cell infiltration”, the “ICAM-1 expression on tumour endothelial cells” value (RIP1-Tag5 tumours [4]; 0.2 ng, short term) was “increases expression of the inflammatory adhesion molecule ICAM-1” and the “expression of collagen I in normalized vessels” value (RIP1-Tag5 tumours [4]; 0.2 ng, short term) was “significantly down regulated”. For the same molecule, the “expression of contractile markers calponin and caldesmon in αSMA-positive tumour pericytes” value (RIP1-Tag5 tumours [4]; 0.2 ng, short term) was “significant increase in expression; also recorded: significantly up regulated”, the “function of vessels within the tumour” value (RIP1-Tag5 tumours [4]; 0.2 ng, short term) was “improved the function of vessels within the tumour” and the “formation of ectopic lymph node structures associated with HEVs (MECA79)” value (RIP1-Tag5 tumours [4]; [6]) was “induced the formation of ectopic lymph node structures”. The “tumours with HEV structures” value (RIP1-Tag5 tumours [4]; [6]) was 60-75%, the “immune cell infiltration of intratumoural areas surrounding HEVs” value (RIP1-Tag5 tumours [4]; 20 ng, short term) was “heavily infiltrated with T cells and B cells” and the “efficacy (total tumour burden by weight)” value (RIP1-Tag5 tumours [4]; two week, 20 ng LIGHT-RGR with anti-PD-1/anti-CTLA4 double treatment versus single antibodies) was “superior to single treatment”.

B2: LIGHT (protein, listed as Mus musculus)
chain: MESVVQPSVFVVDGQTDIPFRRLEQNHRRRRCGTVQVSLALVLLLGAGLATQGWFLLRLHQRLGDIVAHLPDGGKGSWEKLIQDQRSHQANPAAHLTGANASLIGIGGPLLWETRLGLAFLRGLTYHDGALVTMEPGYYYVYSKVQLSGVGCPQGLANGLPITHGLYKRTSRYPKELELLVSRRSPCGRANSSRVWWDSSFLGGVVHLEAGEEVVVRVPGNRLVRPRDGTRSYFGAFMV
In the case of B2, the “calponin/caldesmin induction in pericyte cells” value (pericyte cell line) is reported as “not induced” and the “vessel leakiness (extravasation of 70 kDa dextran)” value (RIP1-Tag5 tumours [4]; 0.2 ng, 2 week treatment) is reported as “leaky phenotype”.
